In patent US11136351B2 (priority 2016, dated 2021):
No end group written: not given here.

How the values were obtained:
Format in all cases: cell-based
[1] = target: T1, human α9α10 nAChR (Homo sapiens, UniProt Q9GZZ6+Q9UGM1); settings: 3 μM
T1 construct: expressed in transfected cells; host or cells: Xenopus laevis oocytes

[2] = tested on: HVA calcium channels in rat DRG neurons; settings: for rat HVA Ca^2+ channel I/Icontrol ± SEM (n): 1 μM
[3] = target: T2, human α7 nAChR (Homo sapiens, UniProt P36544); settings: 3 μM
T2 construct: expressed in transfected cells; host or cells: Xenopus laevis oocytes

T1 sequence (Q9UGM1 26-479 limits assumed): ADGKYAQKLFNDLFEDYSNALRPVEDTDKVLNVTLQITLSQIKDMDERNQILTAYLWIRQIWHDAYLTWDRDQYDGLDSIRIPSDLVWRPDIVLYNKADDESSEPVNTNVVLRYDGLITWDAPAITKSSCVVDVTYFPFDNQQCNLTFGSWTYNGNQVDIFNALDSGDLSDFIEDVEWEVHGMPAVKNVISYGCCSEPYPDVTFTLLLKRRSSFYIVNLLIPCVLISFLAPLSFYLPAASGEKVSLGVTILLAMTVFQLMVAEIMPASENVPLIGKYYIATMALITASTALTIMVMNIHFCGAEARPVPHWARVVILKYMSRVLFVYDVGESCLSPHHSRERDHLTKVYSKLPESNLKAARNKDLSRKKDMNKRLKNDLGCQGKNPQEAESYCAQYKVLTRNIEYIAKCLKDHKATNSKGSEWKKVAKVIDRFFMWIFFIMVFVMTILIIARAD
T1 sequence (Q9GZZ6 25-450): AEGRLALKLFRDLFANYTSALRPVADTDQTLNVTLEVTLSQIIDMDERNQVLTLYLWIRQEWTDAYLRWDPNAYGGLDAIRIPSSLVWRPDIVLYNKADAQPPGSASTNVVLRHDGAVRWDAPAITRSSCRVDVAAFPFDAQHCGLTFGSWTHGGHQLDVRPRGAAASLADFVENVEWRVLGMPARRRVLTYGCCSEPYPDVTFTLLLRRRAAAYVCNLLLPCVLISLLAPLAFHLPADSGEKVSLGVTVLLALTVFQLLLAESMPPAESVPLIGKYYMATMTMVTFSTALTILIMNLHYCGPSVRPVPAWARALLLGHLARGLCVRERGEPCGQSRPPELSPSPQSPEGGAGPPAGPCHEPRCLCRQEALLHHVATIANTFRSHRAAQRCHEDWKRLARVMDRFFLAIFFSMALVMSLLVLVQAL

| Substance | human α9α10 nAChR I/Icontrol ± SEM (n) [1] | inhibition of HVA calcium currents by globular, ribbon and beads isomers [2] | rat HVA Ca^2+ channel I/Icontrol ± SEM (n) [2] | human α7 nAChR I/Icontrol ± SEM (n) [3] |
| --- | --- | --- | --- | --- |
| Pn1.2: native full length Pn1.2, SEQ ID No. 42: G C C S H P P C F L N N P D Y C (GCCSHPPCFLNNPDYC; not fully specified; ends and bridges not checked) | 0.012 ± 0.001 (4) | found to inhibit HVA calcium currents | 0.78 ± 0.03 (11) | 0.006 ± 0.005 (5) |
| Pu1.2: native full length Pu1.2, SEQ ID No. 41: G G C C S Y P P C I A N N P L C (GGCCSYPPCIANNPLC; not fully specified; ends and bridges not checked) | 1.01 ± 0.04 (4) | found to inhibit HVA calcium currents | 0.73 ± 0.02 (12) | 0.98 ± 0.03 (6) |
